Data: article PMC10980163, “Integrin-linked kinase-frizzled 7 interaction maintains cancer stem cells to drive platinum resistance in ovarian cancer” (Research Square, 2024)

Molecular target: T1, recombinant human full length Fzd7 (human, UniProt O75084 33-574)
T1 construct: also called full-length recombinant Fzd7
Assay: co-IP; recombinant human full-length Fzd7 and ILK mixed 1:1 in lysis buffer, incubated overnight at 4 °C with antibody (anti-Fzd7 in Fig. 4D); Western blot for ILK and Fzd7
Settings: both partners purified

binding result: binds
B1: recombinant human full-length ILK (enzyme, UniProt Q13418 1-452, looked up)
chain: MDDIFTQCREGNAVAVRLWLDNTENDLNQGDDHGFSPLHWACREGRSAVVEMLIMRGARINVMNRGDDTPLHLAASHGHRDIVQKLLQYKADINAVNEHGNVPLHYACFWGQDQVAEDLVANGALVSICNKYGEMPVDKAKAPLRELLRERAEKMGQNLNRIPYKDTFWKGTTRTRPRNGTLNKHSGIDFKQLNFLTKLNENHSGELWKGRWQGNDIVVKVLKVRDWSTRKSRDFNEECPRLRIFSHPNVLPVLGACQSPPAPHPTLITHWMPYGSLYNVLHEGTNFVVDQSQAVKFALDMARGMAFLHTLEPLIPRHALNSRSVMIDEDMTARISMADVKFSFQCPGRMYAPAWVAPEALQKKPEDTNRRSADMWSFAVLLWELVTREVPFADLSNMEIGMKVALEGLRPTIPPGISPHVCKLMKICMNEDPAKRPKFDMIVPILEKMQDK
notes: Integrin-linked kinase (ILK), human, recombinant, full length; also called full-length recombinant ILK
